Experimental data from US20210024625A1 (published 2021).

How the values were obtained:
Assay in all cases: cell-based or functional assay
[1] = molecular target: T1, PfRH5 from Plasmodium falciparum strain Dd2 (Plasmodium falciparum)
[2] = molecular target: T2, PfRH5 from Plasmodium falciparum strain FCR-1/FVO (Plasmodium falciparum)
[3] = molecular target: PfRH5 from Plasmodium falciparum strain W2-mef (Plasmodium falciparum)
[4] = molecular target: T1, PfRH5 from Plasmodium falciparum strain …; remark: listed apart in the source
[5] = molecular target: T2, PfRH5 from Plasmodium falciparum strain …; remark: listed apart in the source
[6] = molecular target: T3, PfRH5 from Plasmodium falciparum strain 7G8 (Plasmodium falciparum)
[7] = molecular target: PfRH5 from Plasmodium falciparum strain RF7 (Plasmodium falciparum)
[8] = molecular target: PfRH5 from Plasmodium falciparum strain HB3 (Plasmodium falciparum)
[9] = molecular target: PfRH5 from Plasmodium falciparum strain D10 (Plasmodium falciparum)
[10] = molecular target: PfRH5 from Plasmodium falciparum strain Cam3.II (Plasmodium falciparum)
[11] = molecular target: T4, PfRH5 from Plasmodium falciparum strain 3D7 (Plasmodium falciparum, UniProt Q8IFM5 25-526)
T4 sequence: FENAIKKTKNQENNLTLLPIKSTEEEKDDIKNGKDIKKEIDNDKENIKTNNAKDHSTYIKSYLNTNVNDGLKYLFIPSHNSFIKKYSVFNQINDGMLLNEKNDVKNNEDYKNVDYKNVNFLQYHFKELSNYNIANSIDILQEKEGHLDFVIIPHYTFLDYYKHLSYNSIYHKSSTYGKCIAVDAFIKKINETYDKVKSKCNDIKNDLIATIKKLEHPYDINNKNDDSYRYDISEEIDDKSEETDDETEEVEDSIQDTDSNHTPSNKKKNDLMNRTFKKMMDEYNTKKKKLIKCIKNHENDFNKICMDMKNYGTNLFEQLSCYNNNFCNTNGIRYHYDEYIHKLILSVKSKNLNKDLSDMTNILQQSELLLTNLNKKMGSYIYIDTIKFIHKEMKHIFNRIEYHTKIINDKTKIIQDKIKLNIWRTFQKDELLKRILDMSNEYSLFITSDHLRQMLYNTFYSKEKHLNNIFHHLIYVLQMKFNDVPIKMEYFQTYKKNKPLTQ

[12] = molecular target: T3, PfRH5 from Plasmodium falciparum strain …; remark: listed apart in the source
[13] = molecular target: T4, PfRH5 from Plasmodium falciparum strain …; remark: listed apart in the source

B1: H1H29100P (antibody, V domains shown)
VH: QLQLQESGPGLVKPSETLSLTCTVSGGSISSSSYYWGWIRQPPGKGLEWIGIIYYSGSTYYNPSLKSRVTISVDTSKNQFSLKLSSVTAADTAVYYCARQDREALFDYWGQGTLVTVSS
VL: EIVLTQSPDFQSVTPKEKVTITCRASQRIGSSLHWYQQKPDQSPKLLIKYASQSFSGVPSRFSGSGSGTDFTLTINSLEAEDAATYYCHQSSTLPTFGQGTRLEIKR
[1]
  Maximum growth inhibition (%): 65.7%
[2]
  Percent Maximum Growth Inhibition, mAb (6.67 µM) + AHIS (10%): 82.5%
  Percent Maximum Growth Inhibition, mAb (6.67 µM) + ANS (10%): 73.2%
  Percent Maximum Growth Inhibition, mAb (6.67 µM) + HHIS (10%): 81.9%
  Percent Maximum Growth Inhibition, mAb (6.67 µM) + HNS (10%): 82.4%
  Percent Maximum Growth Inhibition, mAb (6.67 µM) + No serum: 83.9%
[3]
  Max growth inhibition (%): 67.3%
[4]
  Max growth inhibition (%): 64.6%
[5]
  Max growth inhibition (%): 66.9%
[6]
  Max growth inhibition (%): 66.4%
[7]
  Max growth inhibition (%): 17%
[8]
  Max growth inhibition (%): 62.6%
[9]
  Max growth inhibition (%): 81.7%
[10]
  Max growth inhibition (%): 52.4%
[11]
  Max growth inhibition (%), Chloroquine Phosphate N/A: 58%
[12]
  Max growth inhibition (%), Chloroquine Phosphate N/A: 48.9%

B2: H1H29089P (antibody, V domains shown)
VH: EVQLVQSGAEVKKPGESLKISCKGSGYSFTSYWIVWVRQMPGKGLEWMGIIYPGDSDTRYSPSFQGQVTISADKSISTAYLQWSSLKASDTAMYYCARQDITGTTGFDYWGQGTLVTVSS
VL: DIQMTQSPSSLSASVGDRVTITCRASQSIRNYLNWYQQKPGKAPKLLIYAASSLQSGVPSRFSGSGSGTDFTLTISSLQPEDFATYFCQQSYSTPFTFGPGTKVDIKR
[2]
  Percent Maximum Growth Inhibition, mAb (6.67 µM) + AHIS (10%): 84.3%
  Percent Maximum Growth Inhibition, mAb (6.67 µM) + ANS (10%): 75.7%
  Percent Maximum Growth Inhibition, mAb (6.67 µM) + HHIS (10%): 85.2%
  Percent Maximum Growth Inhibition, mAb (6.67 µM) + HNS (10%): 85%
  Percent Maximum Growth Inhibition, mAb (6.67 µM) + No serum: 85.3%
[3]
  Max growth inhibition (%): 66.4%
[4]
  Max growth inhibition (%): 71.3%
[5]
  Max growth inhibition (%): 66%
[13]
  Max growth inhibition (%): 67.6%
[6]
  Max growth inhibition (%): 70.1%
[7]
  Max growth inhibition (%): 28.9%
[8]
  Max growth inhibition (%): 59.1%
[9]
  Max growth inhibition (%): 82.3%
[10]
  Max growth inhibition (%): 56.2%
[11]
  Max growth inhibition (%), Chloroquine Phosphate N/A: 61.1%
[12]
  Max growth inhibition (%), Chloroquine Phosphate N/A: 51.1%
